Data as given in US20050260177A1.

Key:
[1] = target: Ra12 protein (Mycobacterium tuberculosis); test: ELISA, Ra12 on plate, serum 1:1000, well 2
[2] = target: Ra12 protein (Mycobacterium tuberculosis); test: ELISA, Ra12 on plate, serum 1:4000, average of 2 wells
[3] = target: Ra12 protein (Mycobacterium tuberculosis); test: ELISA, Ra12 on plate, serum 1:16000, average of 2 wells
[4] = target: Ra12 protein (Mycobacterium tuberculosis); test: ELISA, Ra12 on plate, serum 1:128000, average of 2 wells
[5] = target: Ra12 protein (Mycobacterium tuberculosis); test: ELISA, Ra12 on plate, serum 1:1024000, average of 2 wells
[6] = target: Ra12 protein (Mycobacterium tuberculosis); test: ELISA, Ra12 on plate, serum 1:1000, well 1
[7] = target: Ra12 protein (Mycobacterium tuberculosis); test: ELISA, Ra12 on plate, serum 1:32000, average of 2 wells
[8] = target: Ra12 protein (Mycobacterium tuberculosis); test: ELISA, Ra12 on plate, serum 1:256000, well 1
[9] = target: Ra12 protein (Mycobacterium tuberculosis); test: ELISA, Ra12 on plate, serum 1:8000, well 2
[10] = target: Ra12 protein (Mycobacterium tuberculosis); test: ELISA, Ra12 on plate, serum 1:8000, well 1
[11] = target: Ra12 protein (Mycobacterium tuberculosis); test: ELISA, Ra12 on plate, serum 1:4000, well 2
[12] = target: Ra12 protein (Mycobacterium tuberculosis); test: ELISA, Ra12 on plate, serum 1:16000, well 1
[13] = target: Ra12 protein (Mycobacterium tuberculosis); test: ELISA, Ra12 on plate, serum 1:64000, average of 2 wells
[14] = target: Ra12 protein (Mycobacterium tuberculosis); test: ELISA, Ra12 on plate, serum 1:128000, well 1
[15] = target: Ra12 protein (Mycobacterium tuberculosis); test: ELISA, Ra12 on plate, serum 1:64000, well 2
[16] = target: Ra12 protein (Mycobacterium tuberculosis); test: ELISA, Ra12 on plate, serum 1:2000, average of 2 wells
[17] = target: Ra12 protein (Mycobacterium tuberculosis); test: ELISA, Ra12 on plate, serum 1:256000, average of 2 wells
[18] = target: Ra12 protein (Mycobacterium tuberculosis); test: ELISA, Ra12 on plate, serum 1:32000, well 1
[19] = target: Ra12 protein (Mycobacterium tuberculosis); test: ELISA, Ra12 on plate, serum 1:2000, well 1
[20] = target: Ra12 protein (Mycobacterium tuberculosis); test: ELISA, Ra12 on plate, serum 1:512000, well 1
[21] = target: Ra12 protein (Mycobacterium tuberculosis); test: ELISA, Ra12 on plate, serum 1:16000, well 2
[22] = target: Ra12 protein (Mycobacterium tuberculosis); test: ELISA, Ra12 on plate, serum 1:8000, average of 2 wells
[23] = target: Ra12 protein (Mycobacterium tuberculosis); test: ELISA, Ra12 on plate, serum 1:1000, average of 2 wells
[24] = target: Ra12 protein (Mycobacterium tuberculosis); test: ELISA, Ra12 on plate, serum 1:2000, well 2
[25] = target: Ra12 protein (Mycobacterium tuberculosis); test: ELISA, Ra12 on plate, serum 1:32000, well 2
[26] = target: Ra12 protein (Mycobacterium tuberculosis); test: ELISA, Ra12 on plate, serum 1:1024000, well 2
[27] = target: Ra12 protein (Mycobacterium tuberculosis); test: ELISA, Ra12 on plate, serum 1:512000, well 2
[28] = target: Ra12 protein (Mycobacterium tuberculosis); test: ELISA, Ra12 on plate, serum 1:1024000, well 1
[29] = target: Ra12 protein (Mycobacterium tuberculosis); test: ELISA, Ra12 on plate, serum 1:4000, well 1
[30] = target: Ra12 protein (Mycobacterium tuberculosis); test: ELISA, Ra12 on plate, serum 1:256000, well 2
[31] = target: Ra12 protein (Mycobacterium tuberculosis); test: ELISA, Ra12 on plate, serum 1:512000, average of 2 wells
[32] = target: Ra12 protein (Mycobacterium tuberculosis); test: ELISA, Ra12 on plate, serum 1:64000, well 1
[33] = target: Ra12 protein (Mycobacterium tuberculosis); test: ELISA, Ra12 on plate, serum 1:128000, well 2

Preimmune sera (antibody)
ELISA absorbance at 450 nm [1]: 0.18 OD450
ELISA absorbance at 450 nm [2]: 0.15 OD450
ELISA absorbance at 450 nm [3]: 0.15 OD450
ELISA absorbance at 450 nm [4]: 0.14 OD450
ELISA absorbance at 450 nm [5]: 0.16 OD450
ELISA absorbance at 450 nm [6]: 0.18 OD450
ELISA absorbance at 450 nm [7]: 0.14 OD450
ELISA absorbance at 450 nm [8]: 0.15 OD450
ELISA absorbance at 450 nm [9]: 0.15 OD450
ELISA absorbance at 450 nm [10]: 0.15 OD450
ELISA absorbance at 450 nm [11]: 0.15 OD450
ELISA absorbance at 450 nm [12]: 0.15 OD450
ELISA absorbance at 450 nm [13]: 0.13 OD450
ELISA absorbance at 450 nm [14]: 0.15 OD450
ELISA absorbance at 450 nm [15]: 0.13 OD450
ELISA absorbance at 450 nm [16]: 0.16 OD450
ELISA absorbance at 450 nm [17]: 0.15 OD450
ELISA absorbance at 450 nm [18]: 0.14 OD450
ELISA absorbance at 450 nm [19]: 0.15 OD450
ELISA absorbance at 450 nm [20]: 0.16 OD450
ELISA absorbance at 450 nm [21]: 0.14 OD450
ELISA absorbance at 450 nm [22]: 0.15 OD450
ELISA absorbance at 450 nm [23]: 0.18 OD450
ELISA absorbance at 450 nm [24]: 0.17 OD450
ELISA absorbance at 450 nm [25]: 0.13 OD450
ELISA absorbance at 450 nm [26]: 0.16 OD450
ELISA absorbance at 450 nm [27]: 0.16 OD450
ELISA absorbance at 450 nm [28]: 0.16 OD450
ELISA absorbance at 450 nm [29]: 0.15 OD450
ELISA absorbance at 450 nm [30]: 0.15 OD450
ELISA absorbance at 450 nm [31]: 0.16 OD450
ELISA absorbance at 450 nm [32]: 0.14 OD450
ELISA absorbance at 450 nm [33]: 0.14 OD450
